Laboratory results from paper doi:10.1101/298455 (bioRxiv, 2018).

Target: human eIF4E (human, UniProt P06730 1-217)
Test: ELISA

human eIF4E, sequence (P06730 whole entry): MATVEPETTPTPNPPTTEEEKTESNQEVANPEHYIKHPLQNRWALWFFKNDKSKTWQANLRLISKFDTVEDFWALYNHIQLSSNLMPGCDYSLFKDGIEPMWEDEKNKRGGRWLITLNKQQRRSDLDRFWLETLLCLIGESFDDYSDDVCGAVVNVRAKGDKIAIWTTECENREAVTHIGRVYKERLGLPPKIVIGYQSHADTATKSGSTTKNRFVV

RKKGKGKGTTVGMGKSSRRFINMYGF [GST-VPg5 fusion protein]: binds.
